Experimental data published in the nanobody polyreactivity screen of Harvey et al. (2022).

Assay: yeast display, Sf9 membrane polyspecificity reagent, FACS + sequencing; frameworks hold sequencing errors
Summary of the method: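 A nanobody's polyreactivity label depends on the gate it was sorted from. Yeast display cells were stained with 10% biotinylated, detergent-solubilized Sf9 membrane reagent for 1 hour at 4 °C, enriched on streptavidin microbeads and sorted by FACS. The low and high (top ~1%) gates were set on anti-HA fluorescence for expression and streptavidin fluorescence for reagent binding.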

| Sequence | polyreactivity (PSR sort gate) |
| --- | --- |
| QVQLVESGGGLVQAGGRLRLSCAASGSIFHLYMGWYRQAPGKERELVAVINSSGDSTYYADSVKGRFTISRDNAKNTVYLQMNSLKPEDTAVYYCNARRRGPRYLYGYWGQGSQVTVSS | high polyreactivity |
| QVQLVESGGGLVQAGGRLRLSCAASGSIFHYNAMGWYRQAPGKESELVAAITTSGGSTYYADSVKGRFTISLDNAKNSVYLQMNSLKPEDTAVYYCNVVTRYYTMEYWGQGTQVTVSS | high polyreactivity |
| QVQLVESGGGLVQAGGRLRLSCAASGSIFPFYAMGWYRQAPGKERELVAAISDRGGSTYYADSVKGRFTISRDNAKNTVYLQMISLKPEDTAVYYCAKGGEVSQGYTDEYDYWGQGTQVTVSS | low polyreactivity |
| QVQLVESGGGLVQAGGRLRLSCAASGSIFQFYAMGWYRQAPGKERELVAAINWSGGSTYYADSVKGRFTISRDNAKNTVYLQMNSLKPEETAVYYCNALRRIGRYYKAGGYGYWGQGTQVTVSS | high polyreactivity |
| QVQLVESGGGLVQAGGRLRLSCAASGSIFRLYAMGWYRQAPGKEREFVAGITRRTGSTYYADSVKGRFTISRDNAKNTVNLQMNSLKPEDTAVYYCAKRDARATPFGYWGQGTQVTVSS | high polyreactivity |
| QVQLVESGGGLVQAGGRLRLSCAASGSIFRRYAMGWYRQAPGKERELVAAISSKGGSTYYADSVKGRFTISRDNAKNTVYLQMNSLKPEDTAVYYCNAQLVHYRFSSVFTYTIDDYWGQGTQVTVSS | high polyreactivity |
| QVQLVESGGGLVQAGGRLRLSCAASGSIFRWYAMGLYRQAPGKERELVAAITSGGSTYYADSVKGRFTISRDNAKNCVYLQMNSLKPEDTAVYYCNAKTYYPPFGYWGQGTQVTVSS | low polyreactivity |
| QVQLVESGGGLVQAGGRLRLSCAASGSIFYNYAMGWYRQAPGKERELVAAITRSGGSTYYADSVKGRFTISRDNAKNTVYLQMNSLKPEDTAVYYCAARYPFGSLGRYGYWGQGTQVTVSS | high polyreactivity |
| QVQLVESGGGLVQAGGRLRLSCAASGSIIISNGMGWSRQAPGKERELVATISWIGGSTYYADSVKGRFTISRDNAKNTVYLQMNSLKPEDTAVYYCAADVVLARPFEGDYWGQGTQVTVSS | low polyreactivity |
| QVQLVESGGGLVQAGGRLRLSCAASGSIYDDYAMGWNRQAPGKEREFVAAIDYSGGSTYYADSVKGRFTISRDNAKNTVYFQKNSLKPEDTAVYYCAKEAITRTFQYRHDYWGQGTQVTVSS | low polyreactivity |
| QVQLVESGGGLVQAGGRLRLSCAASGSTFGANAMGWYRQAPGKEREFVAAISRSGVRTYYADSVKGRFTISRDNAKNTVFLQMNSLKPEDTAVYYCAADGYWWTDTRYDYCGQGTQVTVSS | low polyreactivity |
| QVQLVESGGGLVQAGGRLRLSCAASGSTFPKYAMGWYRQAPGKERELVASISVTTGSTYYADSVKGRFTISRDNAKNTVYLQMNSLKPEDTAVYYCAKRTYSRKFRGAYNYWGQGTQVTVSS | high polyreactivity |
| QVQLVESGGGLVQAGGRLRLSCAASGSTFQQYGMGWYRQAPGKERELVAAISGGVSTYYADSLKGLFTISRDHAKNTVYLQMYSLKPEDTAVYYCNADTSYSEWGSWYYEYDYWGQGTQVTVSS | low polyreactivity |
| QVQLVESGGGLVQAGGRLRLSCAASGSTFRYYAMGWYRQAPWKERELVAAISSTGTRTYYADSVKGRFTISRDNAKNTVYLQMNSLKPEDTAVSYCAADYVRYATRYDYWGQGTQVTVSS | high polyreactivity |
| QVQLVESGGGLVQAGGRLRLSCAASGSTFSYYAMGWYRQAPGKEREMVAAISRTGGSTYYADSVKGRCTISRDNAKNTVYLQMNSLKAEDTAFYYCNARAPVGTFDYDYWGQGTQVTVSS | low polyreactivity |
| QVQLVESGGGLVQAGGRLRLSCAASGSTFTDYAMGWYRQAPRKERELVASITSGGRTNYADSVKGRFTITRDNAKNTVYLQMNSLKPEDTAVYYCAADYSVPTSQAYDYWGQGTQVTVSS | low polyreactivity |
| QVQLVESGGGLVQAGGRLRLSCAASGSTFYNYAMGWYRQAPGKERELVASIPWNGGSTYYADSVKGRFTISRDNAKNTVYLQMNSLKPEDTAVYYCAADWTWTYPYDYWGQGTQVTVSS | low polyreactivity |
| QVQLVESGGGLVQAGGRLRLSCAASGSTFYSNAMGWYRQAPGKERELVASIRFSGVITTYADSVKGRFTISRDNAKNTVYLQMNSLKPEDTAVYYCDAGYLSTTAYDYWGQGTQVTVSS | low polyreactivity |
| QVQLVESGGGLVQAGGRLRLSCAASGSTIRLYAKGWYRQAPGKERELVAAISVSGGSTHYADSVKGRFTISRDNAKNTVYLQMNSLKPEDTAVYYCNAAGNPVSRYHYDYWGQGTQVTVSS | high polyreactivity |
| QVQLVESGGGLVQAGGRLRLSCAASGTIFDFYAMGWYRQAPGKERELVATITASGGSTYYADSVKGRFTISRDNAKNTVYLQMKSLKPEDTAVYYCAAVGPHWYGQGWALYRFEYWGQGTQVTVSS | low polyreactivity |
| QVQLVESGGGLVQAGGRLRLSCAASGYIFSYYAMAWYRQAPGKERELVASITSSGGSTYYADSVKGRFTISRDNAKNTVYLQMNSLKPEVTAVSYCAAYSLYGYDYWGQGTQVTVSS | low polyreactivity |
| QVQLVESGGGLVQAGGRLRLSCAASGYTFTHYAMGLYRQAPVKESELVASIRNSGSRTYYADSVKGRFTISPDNAKNTVYLQLNSLKPEDTAVYYCAAKTTTPYRYIYYYWGQGTQVTVSS | high polyreactivity |

| Sequence | polyreactivity (PSR sort gate) |
| --- | --- |
| QVQLVESGGGLVQAGGRLRLSCAASLYIYGGYGMGWYRKAPGKERELVAVITSSVSTDYADSVKGSFTISRDNAKNTVYLQMKSLKPEDTAVYYSSADFLWYIYNIGTSLEFEYWGQGTQVTVSS | low polyreactivity |
| QVQLVESGGGLVQAGGRLRLSCAASVRILGKYAMGWYRQAPGKERELVAAIRLRGGSTYYADSVKGRFTISRDNAKNTVYLQMNSLKPEDTAVYYCAARYWDRSQAYYYWGQGTQVTVSS | high polyreactivity |
| QVQLVESGGGLVQAGGRLRLSCAATGSTFEVYAMGWYRQAPGKERELVAVINVSDGSTYYADSVKGRFTISRDNAKNTVYLQMNSLKPEDTAVYLCAAYLYNRPYQLTGYYDGYGYWGQGTQVTVSS | low polyreactivity |
| QVQLVESGGGLVQAGGRLRLSCADSGIIFRAYTIGWYRQATGKERELVAGITSGGSTYYADSVKGRFTISRDNAKNTVYLQMNSLKPEDTAVYYCATYYGRWTPIPYEYWGQGTQVTVSS | high polyreactivity |
| QVQLVESGGGLVQAGGRLRLSCAPSGGIFNPNVMGGYRQSPGKETELVASITGRGGNTYYADSVKGRFTISRDNAKNTVYLQMNSLKPEDTAVYYCAAAIPHHSRVYYWGQGPQVTVSS | low polyreactivity |
| QVQLVESGGGLVQAGGRLRLSCGASGIIFVYYTMGWDRQAPGKERELVAAITSGGSTYYADSVKGRFTISRDNAKNTVFLQINSLKPEDTAVYYCAAVGRPPYAGDRGFRGQGTQVTVSS | high polyreactivity |
| QVQLVESGGGLVQAGGRLRLSCTASGIIFGTYAMGWYRQAPGKERELVAAISSSGVSTYYADSVKGRFTISRDNAKNTVYLQMNSLKPEDTAVYYCAAPLHYGYYYWGQGTQVTVSS | high polyreactivity |
| QVQLVESGGGLVQAGGRLRLSGAASGLIFTTYAMGWSRQAPGKVRELVAAISSSGDSTYYADSVKGRFTISRDNAKNTVYLQMNSLKPEDTAVYYRAARYYYRGYEFGYWGQGTQVTVSS | high polyreactivity |
| QVQLVESGGGLVQAGGRLRRICAASGRIYSRYTMGWYRQAPGKERQLVAVITSGGSTYYADSVKGRFTISRDNAKNTVYLQMNSLKPDDTAVYYCNAVRFTYGGYLRRYDYWGHGTQVTVSS | high polyreactivity |
| QVQLVESGGGLVQAGGRRRLSCAASGSTYNPYPMGWYRQAPGKERELLATITWRGTSTYYADSVKGRFTISRDNAKYTVYLQMNSLKPEDTAVYYGAKGFVYNYPKTYKSYSTYYYWGQGTQVTVSS | high polyreactivity |
| QVQLVESGGGLVQAGGSDRLSCAASGSIIDYYAMGWYRQAPGKERELVADITVTGDGTYYADSVKGRFTISRDNAKNTVYLQMNSLKPEDTAVYYCAAAGVYYGVRGTTYAYDYWGQGTQVTVSS | low polyreactivity |
| QVQLVESGGGLVQAGGSFRLSCAASGFTLYGNAMGWSRQAPGNDRELVATIRSTGSTTYADSVKGRFTISRDNAKNTVYLQMNSLKPEDTAVHYCAKVSTYGGRHRWPGSIYDYWGQGTQVTVSS | low polyreactivity |
| QVQLVESGGGLVQAGGSFRLSCAASGSIFDGYAMGWYRQAPGTERELVAAISSGGDSTYYADSVKGRFTISRDNAKNTVYLQMNSLKPEDTAVYYCNADSLVGHSYDYWGQGTQVTVSS | low polyreactivity |
| QVQLVESGGGLVQAGGSFRLSCAASGSIFVVYAMGWYRQAPGKERELVAAITSGGSTYYADSVKGRFTISRDNAKNTVYLQMNSLKPEDTAVYYCATTYRDGVYELTTFDYWGQGTQVTVSS | low polyreactivity |
| QVQLVESGGGLVQAGGSFRLSSAPSGSIFVVYAMGGYIQAPGKERELVAAITSGGSTYYADSVKGRFTISRDNAKNTVYLQMNSLKPEDTAVYYCATTYRDGVYELSTFDYWGQGTQVTVSS | low polyreactivity |
| QVQLVESGGGLVQAGGSHRFSCAASGFTFGHDTMGWYRQAPGKERELVAAITWRGGTYYADSEKGRFTISRDNAMNTVYLQMNSMKPEDTAVYYCAKRRASRYYWGQGTQVTVSS | high polyreactivity |
| QVQLVESGGGLVQAGGSHRLICAASGFNFYIYAMGWYRQAPGKERELVAAISWNGGSTYYADSVKGRFTISRDIAKNTVYLQMNSLKPEDTAVYYCAARHYYFYYHGYVKYDYWGQGTQVTVSS | high polyreactivity |
| QVQLVESGGGLVQAGGSHRLSCAASGFIFRRNAMGWYRQAPGKERELVAAITKSGGSTYYADSVKGRFTISRDNAKNTVYLQMNSLKPEDTAVYYCAAKRQTGQSYYWGQGTQVTVSS | high polyreactivity |
| QVQLVESGGGLVQAGGSHRLSCAASGFTFIGYPMGWYRQAPGKERELVAAITQSGGSTFYADSVKGRFTISRDNAKNTVYLHMNSLKPEDTAVYYCNAYRKFRYWGHGTQVTVSS | low polyreactivity |
| QVQLVESGGGLVQAGGSHRLSCAASGIIIEGNVMGWSRQSPGKQSELVAAITSDTSTNYGDSVKGRFTISRDNATNTVYLQMNSLKPEDTGVYYCNAVIGTDYFYSGTAEFYYWGQGTQVTVSS | low polyreactivity |
| QVQLVESGGGLVQAGGSHRLSCAASGITFPYYAMGCYRQAPVKERELVAAISSSGGSTYYADSVKGRFTISRDNAKNTVYLQMNSLKPEDTAVYYCNKRYVVYPGNYWRYDYWGQGTQVTVSS | high polyreactivity |
